In publication PMC4351601, “Structural basis for self-assembly of a cytolytic pore lined by protein and lipid” (Nature Communications, 2015):
Where a chain is given by its changes, count along the chain named. In names and notes the source's numbering stands.

B1: FraC mutein V60E/W149A (natural protein)
chain: SADVAGAVIDGAGLGFDVLKTVLEALGNVKRKIAVGIDNESGKTWTAMNTYFRSGTSDIELPHKVAHGKALLYNGQKNRGPVATGVVGVIAYSMSDGNTLAVLFSVPYDYNWYSNWWNVRVYKGQKRADQRMYEELYYHRSPFRGDNGAHSRGLGYGLKSRGFMNSSGHAILEIHVTKA
B2: fragaceatoxin C (FraC), wild type (natural protein)
chain: B1 chain with E60V, A149W
notes: no tag is mentioned; also called water-soluble FraC; monomeric FraC; source: E. coli BL21 (DE3), purified (Resource S cation exchange, Superdex 75 SEC)
B3: FraC mutein V8C/K69C, oxidised (engineered disulfide bond between the N-terminal and beta-core regions) (natural protein)
chain: B1 chain with V8C, E60V, K69C, A149W

Legend:
[1] = target: the molecule itself; assay: cell-based or functional assay
[2] = target: the molecule itself; assay: crystal structure; dimeric form (assembly intermediate); crystals with 100 mM POC, 3 mM DDM, 200 mM Li2SO4, PEG 8,000, sodium acetate pH 4.1-4.3; two crystal forms, 1.57 and 1.60 Å
[3] = target: the molecule itself; assay: crystal structure; transmembrane pore; water-soluble FraC incubated with lipid vesicles, solubilised and purified in detergent (DDM 0.015%), crystallised by the lipid sponge phase method, 20 °C; 3.1 Å; 24 bound lipids modelled as SM

Protein | haemolytic activity (horse erythrocytes), relative to wild-type FraC [1] | stoichiometry N [2] | stoichiometry N [3]
B1 | ~16 % of wild type |  | 
B2 |  | 2 | 8
B3 | 1 % of wild type |  | 
